From US20030040606A1 (SKYTECH TECHNOLOGY, published 2003) come the findings set out here.

In the test the target is T1, CD22 on Raji cells (UniProt P20273 20-847, limits assumed).
T1 construct: whole, on cells
T1 sequence (looked up): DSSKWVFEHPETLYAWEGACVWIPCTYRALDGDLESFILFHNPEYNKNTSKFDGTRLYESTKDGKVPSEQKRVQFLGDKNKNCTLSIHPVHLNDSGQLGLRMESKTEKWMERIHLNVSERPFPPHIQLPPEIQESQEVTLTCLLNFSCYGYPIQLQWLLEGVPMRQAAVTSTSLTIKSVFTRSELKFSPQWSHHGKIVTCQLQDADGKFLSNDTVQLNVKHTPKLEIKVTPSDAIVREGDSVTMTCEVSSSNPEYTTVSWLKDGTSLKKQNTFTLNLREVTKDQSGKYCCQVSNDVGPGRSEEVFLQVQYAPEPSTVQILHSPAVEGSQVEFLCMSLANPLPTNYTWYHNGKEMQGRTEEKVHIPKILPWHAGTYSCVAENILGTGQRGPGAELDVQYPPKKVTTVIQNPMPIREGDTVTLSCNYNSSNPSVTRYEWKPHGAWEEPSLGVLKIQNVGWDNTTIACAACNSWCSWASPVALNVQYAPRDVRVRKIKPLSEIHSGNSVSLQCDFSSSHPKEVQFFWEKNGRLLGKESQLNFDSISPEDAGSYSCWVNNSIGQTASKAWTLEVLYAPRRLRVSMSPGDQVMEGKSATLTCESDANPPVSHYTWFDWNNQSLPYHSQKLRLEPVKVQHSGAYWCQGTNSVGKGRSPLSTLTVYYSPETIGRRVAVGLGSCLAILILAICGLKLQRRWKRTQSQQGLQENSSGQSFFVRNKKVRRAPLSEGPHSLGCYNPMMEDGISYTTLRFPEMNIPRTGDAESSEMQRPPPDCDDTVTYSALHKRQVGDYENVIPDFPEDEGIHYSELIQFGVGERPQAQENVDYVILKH
Put plainly: flow cytometry on Raji cells, 1 ug antibody, FITC goat anti-human IgG1 Fc detection. In general terms: In flow cytometry, cells or beads pass a laser one at a time.

Description: The mixtures were incubated for 30 minutes at 4° C. and washed three times with PBS to remove unbound antibodies. The binding levels of the antibodies to Raji cells were assessed by the addition of a 20x diluted FITC-labeled, goat anti-human IgG1, Fc fragment-specific antibodies (Jackson ImmunoResearch, West Grove, Pa.) in a final volume of 100 μl in PBS-FA, and incubating for 30 minutes at 4° C.

B1: FR-patched anti-CD22 antibody hpRFB4 (antibody, human IgG1, V domains shown)
VH: EVQLLESGGGLVQPGGSLRLSCAASGFSFSIYDMSWVRQAPGKGLEWVAYISSGGGTTYYPDTVKGRFTISRDNAKNSLYLQMNSLRVEDTALYYCARHSGYGSSYGVLFAYWGQGTLVTVSS
VL: DIQMTQSPSSLSASVGDRVTISCRASQDISNYLNWYQQKPGKAPKLLIYYTSILHSGVPSRFSGSGSGTEFTLTISSLQPEDFATYFCQQGNTLPWTFGGGTKVEIK
notes: Expressed in Sp2/0 cells with a human IgG1 heavy chain constant region and a human kappa light chain constant region (vectors hpRFB4pSMh and hpRFB4pSMk); protein A purified; also called FR-patched antibody; FR-patched RFB4
For the molecule B1, the binding result is given as “binds”.
